According to publication PMC9569990 (International Journal of Molecular Sciences, 2022):

How the values were obtained:
Assay in all cases: SPR; cytokine immobilised on ProteOn GLH sensor chip by amine coupling (9,000-14,000 RU); S100P (wild type or mutant) as analyte, 62 nM-16 µM; 25 °C; 10 mM HEPES, 150 mM NaCl, 1 mM CaCl2, 0.05% TWEEN 20, pH 7.4; heterogeneous ligand model (two ligand populations), one-site model for IL-13; values averaged over analyte concentrations (n = 3-5)
Settings in all cases: both partners purified
Interleukin-31 = molecular target: T1, Interleukin-31 (human, UniProt Q6EBC2 24-164)
T1 construct: Interleukin-31, human, UniProt Q6EBC2; see the manufacturer's catalogue number; also called IL-31; source: bought: PeproTech (source E. coli)
T1 sequence (looked up): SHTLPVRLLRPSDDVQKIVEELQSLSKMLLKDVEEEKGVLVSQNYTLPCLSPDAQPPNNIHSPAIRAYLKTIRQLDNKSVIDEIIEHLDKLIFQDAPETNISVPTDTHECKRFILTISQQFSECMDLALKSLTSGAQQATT

[1] = molecular target: T2, Granulocyte colony-stimulating factor (human, UniProt P09919-2 31-204)
T2 construct: Granulocyte colony-stimulating factor, human, UniProt P09919; No catalogue number (n/a); also called G-CSF; source: bought: Pharmstandard (Russia) (source E. coli)
T2 sequence (looked up): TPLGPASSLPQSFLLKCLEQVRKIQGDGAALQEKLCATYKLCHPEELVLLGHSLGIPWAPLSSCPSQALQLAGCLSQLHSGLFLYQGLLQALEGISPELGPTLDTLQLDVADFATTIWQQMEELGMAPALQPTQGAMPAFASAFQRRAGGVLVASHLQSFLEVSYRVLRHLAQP

Somatotropin = molecular target: T3, Somatotropin (human, UniProt P01241 27-217)
T3 construct: Somatotropin (growth hormone), human, UniProt P01241; see the manufacturer's catalogue number; also called GH; growth hormone; source: bought: PeproTech (source E. coli)
T3 sequence (P01241 27-217): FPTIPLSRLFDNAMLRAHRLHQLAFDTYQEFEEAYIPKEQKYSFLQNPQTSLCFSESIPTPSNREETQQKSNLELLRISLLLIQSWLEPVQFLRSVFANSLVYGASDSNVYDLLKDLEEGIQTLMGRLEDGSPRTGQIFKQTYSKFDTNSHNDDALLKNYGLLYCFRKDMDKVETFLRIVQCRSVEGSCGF

Interleukin-20 = molecular target: T4, Interleukin-20 (human, UniProt Q9NYY1 25-176)
T4 construct: Interleukin-20, human, UniProt Q9NYY1; see the manufacturer's catalogue number; also called IL-20; source: bought: PeproTech (source E. coli)
T4 sequence (looked up): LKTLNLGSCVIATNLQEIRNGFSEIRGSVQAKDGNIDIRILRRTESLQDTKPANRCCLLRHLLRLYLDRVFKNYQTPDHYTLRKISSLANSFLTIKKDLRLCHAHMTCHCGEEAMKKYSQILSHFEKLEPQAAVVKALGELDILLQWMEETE

Interleukin-24 = molecular target: T5, Interleukin-24 (human, UniProt Q13007 52-206)
T5 construct: Interleukin-24, human, UniProt Q13007; see the manufacturer's catalogue number; also called IL-24; source: bought: PeproTech (source CHO)
T5 sequence (looked up): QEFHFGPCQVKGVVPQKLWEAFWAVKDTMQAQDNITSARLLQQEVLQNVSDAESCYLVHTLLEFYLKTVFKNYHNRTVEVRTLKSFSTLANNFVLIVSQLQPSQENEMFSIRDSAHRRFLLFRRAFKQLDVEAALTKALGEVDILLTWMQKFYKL

Interleukin-3 = molecular target: T6, Interleukin-3 (human, UniProt P08700 20-152)
T6 construct: Interleukin-3, human, UniProt P08700; see the manufacturer's catalogue number; also called IL-3; source: bought: SCI-Store (Russia) (source CHO)
T6 sequence (looked up): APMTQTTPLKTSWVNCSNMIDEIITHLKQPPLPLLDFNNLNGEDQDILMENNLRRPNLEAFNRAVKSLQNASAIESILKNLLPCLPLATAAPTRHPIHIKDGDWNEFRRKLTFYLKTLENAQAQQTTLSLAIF

B1: Human S100P protein (recombinant, Ca^2+-loaded) (natural protein)
chain: MTELETAMGMIIDVFSRYSGSEGSTQTLTKGELKVLMEKELPGFLQSGKDKDAVDKLLKDLDANGDAQVDFSEFIVFVAAITSACHKYFEKAGLK
notes: S100P protein, human, recombinant; probably the whole 95-residue protein (surmise); also called wild-type S100P; WT S100P; source: E. coli, prepared as previously described [28]
Kd1 (heterogeneous ligand model, population 1) (Interleukin-31): 25.2 nM
Kd2 (heterogeneous ligand model, population 2) (Interleukin-31): 202 nM
kd1 (heterogeneous ligand model, population 1) (Interleukin-31): 0.00023 s⁻¹
kd2 (heterogeneous ligand model, population 2) (Interleukin-31): 0.0583 s⁻¹
Kd1 (heterogeneous ligand model, population 1) [1]: 213 nM
Kd2 (heterogeneous ligand model, population 2) [1]: 854 nM
kd1 (heterogeneous ligand model, population 1) [1]: 0.000315 s⁻¹
kd2 (heterogeneous ligand model, population 2) [1]: 0.0154 s⁻¹
Kd1 (heterogeneous ligand model, population 1) (Somatotropin): 42.9 nM
Kd2 (heterogeneous ligand model, population 2) (Somatotropin): 266 nM
kd1 (heterogeneous ligand model, population 1) (Somatotropin): 0.000669 s⁻¹
kd2 (heterogeneous ligand model, population 2) (Somatotropin): 0.0142 s⁻¹
Kd1 (heterogeneous ligand model, population 1) (Interleukin-20): 403 nM
Kd2 (heterogeneous ligand model, population 2) (Interleukin-20): 537 nM
kd1 (heterogeneous ligand model, population 1) (Interleukin-20): 0.000442 s⁻¹
kd2 (heterogeneous ligand model, population 2) (Interleukin-20): 0.0246 s⁻¹
Kd1 (heterogeneous ligand model, population 1) (Interleukin-24): 158 nM
Kd2 (heterogeneous ligand model, population 2) (Interleukin-24): 918 nM
kd1 (heterogeneous ligand model, population 1) (Interleukin-24): 0.000483 s⁻¹
kd2 (heterogeneous ligand model, population 2) (Interleukin-24): 0.00794 s⁻¹
Kd1 (heterogeneous ligand model, population 1) (Interleukin-3): 23.2 nM
Kd2 (heterogeneous ligand model, population 2) (Interleukin-3): 579 nM
kd1 (heterogeneous ligand model, population 1) (Interleukin-3): 0.000627 s⁻¹
kd2 (heterogeneous ligand model, population 2) (Interleukin-3): 0.00529 s⁻¹
